In experiment [1] the target is rat Munc13-1(859–1407,1453–1531) fragment (MUN*) (rat) (UniProt Q62768). The experiment in a line: NMR titration.
Experiment [2] deals with cytoplasmic domain (residues 2–253) of rat syntaxin-1A (rat, UniProt P32851 2-253). Nature of the experiment: SEC.

Consider “Munc18-1–SNARE complex assembly (Munc18-1 plus SNARE complex as titrated on 15N-MUN*) (from UniProt P32851;P63045;P60880)”, for which the Kd in experiment [1] was 13 µM. This counts as double-digit micromolar.

B1: human SNAP25 (residues 11–82) (domain or fragment)
chain: LEEMQRRADQLADESLESTRRMLQLVEESKDAGIRTLVMLDEQGEQLERIEEGMDQINKDMKEAEKNLTDLG
B1: the binding result in experiment [2] is recorded as “binds”.

For the origin of these results see article PMC3087822 (Nature structural & molecular biology, 2011).
